Molecular target: T1, Neogenin (Mus musculus, UniProt P97798)
T1 chain: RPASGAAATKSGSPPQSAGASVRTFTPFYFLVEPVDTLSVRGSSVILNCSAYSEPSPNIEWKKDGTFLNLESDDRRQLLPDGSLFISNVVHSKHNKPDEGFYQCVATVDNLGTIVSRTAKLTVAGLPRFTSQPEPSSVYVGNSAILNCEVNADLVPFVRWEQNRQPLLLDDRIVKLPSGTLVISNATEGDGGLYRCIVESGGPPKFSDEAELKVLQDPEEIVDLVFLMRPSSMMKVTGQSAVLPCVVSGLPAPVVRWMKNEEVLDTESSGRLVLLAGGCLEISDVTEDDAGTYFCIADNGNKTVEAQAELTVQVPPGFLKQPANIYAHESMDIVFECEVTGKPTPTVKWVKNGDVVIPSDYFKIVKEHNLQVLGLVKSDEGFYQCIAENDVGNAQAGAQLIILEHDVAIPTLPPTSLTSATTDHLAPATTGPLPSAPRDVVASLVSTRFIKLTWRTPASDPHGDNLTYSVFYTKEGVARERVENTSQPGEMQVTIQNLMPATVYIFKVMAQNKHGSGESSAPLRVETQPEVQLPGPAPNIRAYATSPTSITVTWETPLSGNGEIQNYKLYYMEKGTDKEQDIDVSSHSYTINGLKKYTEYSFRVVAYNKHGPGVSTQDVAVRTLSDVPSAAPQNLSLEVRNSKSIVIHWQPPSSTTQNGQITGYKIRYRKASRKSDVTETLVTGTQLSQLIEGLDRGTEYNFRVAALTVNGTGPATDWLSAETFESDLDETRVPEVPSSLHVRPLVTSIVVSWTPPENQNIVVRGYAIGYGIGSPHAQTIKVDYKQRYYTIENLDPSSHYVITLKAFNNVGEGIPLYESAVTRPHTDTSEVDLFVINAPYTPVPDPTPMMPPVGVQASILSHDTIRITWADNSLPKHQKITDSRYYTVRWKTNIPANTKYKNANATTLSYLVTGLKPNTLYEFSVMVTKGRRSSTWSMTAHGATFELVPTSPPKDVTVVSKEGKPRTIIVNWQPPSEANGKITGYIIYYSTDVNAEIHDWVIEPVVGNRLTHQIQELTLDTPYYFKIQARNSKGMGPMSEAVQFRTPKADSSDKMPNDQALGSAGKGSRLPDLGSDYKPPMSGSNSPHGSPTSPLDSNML
Experiment: saturation binding of draxin-AP to Neo1-transfected HEK293T cells, Scatchard analysis

Kd: 0.62 nM
B1: Draxin (protein)
chain: GTLASGSSARNLPETHSHLPSSALWVSQASHHGRRGLGKKDRGPGRPSRAQEGAVVTATKQASQMTLGQPPAGLLQNKELLLGLTLPYPEKEARSPAWERVKKRGREHKRRRDRLRLHRGRAAIRGPSSLMKKVEPSEDRMLEGTMEESSTSLAPTMFFLTMTDGATPTTEESRILPVTSLRPQTQPRSDGEVMPTLDMALFDWTDYEDLKPEVWPSAKKKEKHWSHFTSDGNETSPAEGDPCDHHQDCLPGTCCDLREHLCTPHNRGLNNKCFDDCMCMEGLRCYAKFHRNRRVTRRKGRCVEPETANGDQGSFINI
modifications: draxin alkaline phosphatase fusion
